Data reported in the RNAGym collection of RNA variant scans (doi:10.1073/pnas.2313332121).
This sample holds only a part of the variants without activity.

B1: TPR 5TU (parent)
chain: GGAUCUUCUCGAUCUAACAAAAAAGACAAAUCUGCCACAAAGCUUGAGAGCAUCUUCGGAUGCAGAGGCGGCAGCCUUCGGUGGCGCGAUAGCGCCAACGUUCUCAACUAUGACACGCAAAACGCGUGCUCCGUUGAAUGGAGUUUAUCAUG

Variants of: B1
Assay: polymerase ribozyme fitness, log enrichment relative to wild type (log ratio); higher = more active; in vitro selection for triplet polymerase activity
Summary of the method: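 Mutant libraries were PCR-built and transcribed for each subunit of a heterodimeric triplet polymerase ribozyme and selected for one round in triplicate at −7 °C, frozen, before gel excision of extended constructs and streptavidin-bead capture. Input and output libraries were Illumina-sequenced, keeping genotypes with ≥10 input reads and ≥1 read per output. Fitness is a logarithmic ratio of genotype to wild-type enrichment, in base 2, using inverse-variance-weighted replicate averages.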

Polymerase ribozyme fitness (log ratio), -3.75:
C8U A17C A28G C35U C76A C96U U144G

Polymerase ribozyme fitness (log ratio), -4.19:
C8U A28G G34A C36U G86U A91G A110U

Polymerase ribozyme fitness (log ratio), -3.1:
C8G G92C

Polymerase ribozyme fitness (log ratio), -3.44:
C8U C85G

Polymerase ribozyme fitness (log ratio), -4.18:
U7G U130A

Polymerase ribozyme fitness (log ratio), -2.21:
U7G C54U G92U

Polymerase ribozyme fitness (log ratio), -3.86:
U7G A30G C32A A39U A60G C96U G126U G140U

Polymerase ribozyme fitness (log ratio), -4.06:
C8U C27U A115G

Polymerase ribozyme fitness (log ratio), -2.59:
C8U C87U

Polymerase ribozyme fitness (log ratio), -2.38:
U7G A16C

Polymerase ribozyme fitness (log ratio), -4.1:
C8A G58C

Polymerase ribozyme fitness (log ratio), -2.94:
C8U G83A

Polymerase ribozyme fitness (log ratio), -3.98:
C8A A12G

Polymerase ribozyme fitness (log ratio), -2.91:
C8G U55A

Polymerase ribozyme fitness (log ratio), -3.64:
C8G C93U

Polymerase ribozyme fitness (log ratio), -2.39:
U7G G92U

Polymerase ribozyme fitness (log ratio), -3.94:
C8U A20G

Polymerase ribozyme fitness (log ratio), -4.16:
C8A U144C
C8U A22U U56A A73G A121G C123U

Polymerase ribozyme fitness (log ratio), -3.99:
C8A A12U C35G G92U C103G

Polymerase ribozyme fitness (log ratio), -4.13:
C8U G84U

Polymerase ribozyme fitness (log ratio), -3.65:
U7G U82A G117U

Polymerase ribozyme fitness (log ratio), -3.02:
U7G G50U

Polymerase ribozyme fitness (log ratio), ≤ -4.2:
C8A C10U C75A G86A A98U A138C
C8A A17U A23U A26G C27G U90G G92A A115C
C8A A17G U55A C93A G126U G140A
C8U C75A G86U A91U A122G G136A
U7G A21G C57G U127G U130G C131U U135G U148A
C8A A26U A37C G59A C93U
U7G A22G C32U G59C U77G C114U U145A
U7G G11C A29C U82G C95U U109G
C8G U31A G34U C57G C93G
C8A U55A G88A G133C G136A U139A G143C
C8A A52C C75U C95G C96U U109A
C8A A16G G50U G83C U135C G136C
C8U C10G A29U C85U C116U
C8G G42C G50C A91C C93A
C8U A24U A30U U90A G92C
U7G C69G C93A
C8G C35G C105G U144A
U7G U15A A41U A66C G94U C99G G133U U148G
C8U C27A A29U A66U G67A A120U U134A
U7G A21C C36U C54U C79G G83A U144A
C8A G88A
C8U A19C A40G C96U A142U
C8A A16C C18G A49C C95U A98G A142U
C8U A19C G50A C96U
C8U A20G U33A U56A C95A C131A
C8G C79A A91U A107C G124C U144C
U7G C18U A19U A28U C85A C87U A97U
C8A G48C U55A
C8G G84U
C8U A29G A52G U56A U127G
C8A A41C A66U C69A U77C G83C G126U U130G G141C G152C
C8A C14G U53C G58A G62C C85G
C8U G88U G92A
C8U U9G G70A C76A C87G A89C
C8G A20C A73U C99G A106G G140A U144G A147C
U7C G50A G84U C87A U151A
C8A U9C A30U C87U C95U C129A
C8G G25C U33C C93U G124C
U7G A23G
C8G U44A A52C C75A A91G U148G
C8G G71A G74A C79U C87A C116A
C8G A12C A23G A52U C57U C93A C95G A110U
C8A A22C C27U U44C C51U C79A C93G C95G C105G
U7G A30C C32G C51U U144A
U7G C38A G83A G84U U148C
C8U A22U C27U G70A C85A A89U G92U
C8G A52C U55C G65A G83U C105U G143U
U7G A23C A28U C38G A121G
C8U A28U G62U A113C
C8G A20G U44G G48U G84U G128U U144A
C8U A12G A28C C38U C57G C95U
U7G G74A C103A
C8U A19U G62A G86C A113C
C8G C18U C38U G50C C54U G65C C87U C99G
C8U A30U U44A A97G U101G A113G C132U C149G A150U
C8U A19C A40G C57U G92U G140A U146A
C8G U82A C85A A91U C96U G117C
C8G C14G C18G C96U A137U
C8A A17U A26U G48U G68U C93G C132G G141C U148G
C8G A23U A30U G42C G83C A97U
C8U C18G C35A U53A G58C
C8U A98U U135G U148C
C8G A21C G94C C99A
U7G A40U A66C G81C A120G U146G
C8A A16U A17U A26U G80C C87U U139G U151A
C8G A17C C18G A41C A52U G83A G140U
C8A A26U A49U G83U U101G C118U A138C
C8U A52G C85A A119U U130G
C8G U61G G81A C87U G92C A121G C132A U144A G152A
C8A U13G A21G A28G G68U G81A C118G G143U
C8A C10G C18U A21U C54A C87U A120G
C8U C27G A40G U78G C85G A98C A150G
C8A A28U C79U C93U C105U
C8G A28U C87U C105U
C8A A49G G74A G86U G141U U148G
C8G C35U C85G G88U U134A
C8A A64C C72A C95U C116G A121C A138C
U7G A64G C87A C105A U144G
C8A U44A C51A A66G C85U U130G
C8U A37C C93A U151G
C8G C14U A29U G50U C54U C75G A119U
U7G G11C U33C A64U C96A A122G G124A G140U
C8G G34U A73C C85G U148G
C8G C57U G59A C69G G88U C96G A120U
U7G U53A U56G G84U U148C
C8U C57U A60C A97U A115U
C8U A16C U53A C54A G71C G141C U148C C149U
C8A A49G C76A C93A C103G C105A U127C
C8A G48A G92C
C8U G42C C51U U61G C95A C125G U127G A137U C149G
C8G A29G A60U U77A C93A C123U
U7G A12G C18G C32U G94C A115U
C8G A29C G42C
C8U A26U A120G C125U
C8A G11A C63U G83C U130G G152C
C8G A24G C54U G68A G71A A91U C95A
C8U A22C A26C G50C C85A C116U C118A
C8G A12U G25A A28U A39C G58C G94U U144G
C8A A30U A40U G48C G84A A113U C132A
C8A A52C C87A
U7C C38A C51G G83U G84A
C8G C10U C51A G80C C95A U102G G124U A137C
C8A C14U C54A C99A
C8G A16U A20U C79U C85U A115C
C8A A73U G83A C93U A138C U145C
U7G G42C U61A C96U G112C G124C G126C G136A
U7C G46C U56A U77C G81A G86U G100A G133U
C8U C35A C72U C76U G88A G92U A121U
C8U A17G G84U G133C
U7G A23G U53A C99G C116A C125G A137C
U7G C8G U45G A66U C85U A138U
C8A C27U U56C U111C A138G
U7G G50C U56G G94C
U7G C63A C96G
C8A U56A C79U G84C G112A C131U U146A
C8A C18G A40G C54G A73C C87A U90A C114U
C8U A24C C36U G48A C95G C105U U145A
U7G G11U A16G A24C U31G G34U A98G G117C
C8A C27A C57G G92A
C8G A29C G34C U78G G86U A97C C149U
C8G A24U A29G C54G C57U G94A A98G U135G
U7G G50C G58U C63U C76A G92A C149G
C8G C85U G88U U145C
C8U A52C G68C

Polymerase ribozyme fitness (log ratio), -2.8:
C8U G83C

Polymerase ribozyme fitness (log ratio), -2.6:
C8A C85U

Polymerase ribozyme fitness (log ratio), -4.17:
C8U G83U A97G A142U

Polymerase ribozyme fitness (log ratio), -4.14:
C8U G88U C93U

Polymerase ribozyme fitness (log ratio), -3.73:
C8U A47G

Polymerase ribozyme fitness (log ratio), -2.42:
U7C C85U U145A

Polymerase ribozyme fitness (log ratio), -4.11:
C8A A142C

Polymerase ribozyme fitness (log ratio), -3.42:
C8U C123G

Polymerase ribozyme fitness (log ratio), -3.97:
C8U A73U

Polymerase ribozyme fitness (log ratio), -3.95:
C8A U15G C18U G58C C96G

Polymerase ribozyme fitness (log ratio), -3.5:
C8U G83U
C8A U53A G81C C85G C108U A138G A147G A150U G152U

Polymerase ribozyme fitness (log ratio), -2.29:
U7C C35U

Polymerase ribozyme fitness (log ratio), -3.4:
U7G G83A A91U C131U

Polymerase ribozyme fitness (log ratio), -2.7:
C8U G58C

Polymerase ribozyme fitness (log ratio), -2.99:
C8U A12G A52G A98U
C8U G59C

Polymerase ribozyme fitness (log ratio), -2.98:
C8U A106G

Polymerase ribozyme fitness (log ratio), -3.27:
U7C G48C C85U

Polymerase ribozyme fitness (log ratio), -2.47:
U7G A19G
